Experimental data published in patent publication US12637662B2, “Cells, islets, and organoids that evade immune detection and autoimmunity, methods of production and use thereof” (SALK INSTITUTE FOR BIOLOGICAL STUDIES, priority 2018, dated 2026).

Legend:
[1] = test system: chromatin accessibility in HILO cells; test: ATAC-Seq chromatin accessibility in HILOs; assay type: cell-based, human; conditions: sorted GFP+ cells, WNT4 treatment
Text: […] D. Buenrostro et al., 2015, Current Protocols in Molecular Biology, 109:21-29. Reads were aligned by Bowtie to hg19, and peaks were called by HOMER using default settings. Differential peaks and motif analyses from 2 biological duplicates were identified using HOMER essentially as instructed (see, e.g., S. Heinz et al., 2010, J. Mol. Cell, 38:576-589). Detailed methods for HOMER are freely available, e.g., at http://http://homer.salk.edu/homer/. Briefly, the program searches against the target and background sequences for enrichment of known motifs, and returns motifs enriched with a threshold of 1.5-fold change and a p-value of less than 0.05. Promoter regions, defined as 1 kilobase (kB) upstream from the transcription start site, of genes with enhanced chromatin accessibility upon Wnt4 treatment, were interrogated for enriched motifs of 8-16 bp using HOMER motif analysis.

postnatal mouse islets = test: rhWNT4 culture of postnatal islets from WT and β cell specific ERRγKO mice; assay type: cell-based; conditions: 100 ng/ml for 5 days; WT but not ERRγKO mice
Text: FIGS. 8A-8H provide images, graphs, a schematic and a diagram showing results related to WNT4 mediated insulin-GFP expression and WNT4-driven metabolic maturation. FIG. 8A presents representative images of mitochondrial content, indicated by MitoTracker (red) staining, in PBS and WNT4 treated HILOs (scale bar, 100 μm). FIG. 8B presents graphs of flow cytometry quantification of insulin expression (GFP) and mitochondrial content in HILOs treated with recombinant human WNT4 (rhWNT4), WNT5A (rhWNT5A), or conditioned medium (CM) from control or WNT5A overexpressing fibroblasts (n=3). Error bars represent SEM. *p<0.05. […]
Insulin release from intact islets was monitored using batch incubation methods as reported by E. Yoshihara et al., 2016, Cell metabolism, 23:622-634. […] After 30 minutes, the islets were pelleted by centrifugation and secreted insulin levels were determined in the medium by Enzyme Linked Immunosorbent Assay (ELISA), (Rat/mouse Insulin ELISA KIT (Millipore) and Human Insulin ELISA KIT or ultrasensitive human c-peptide ELISA Kit (Millipore) for mouse and human islets, respectively). […] After 30 minutes, the cells were pelleted by centrifugation and c-peptide levels were determined in the supernatant medium using the human c-peptide ELISA KIT (Millipore). […]

wHILO cells = test: Immunohistochemistry and flow cytometry of cell composition; assay type: cell-based, human
Description: Secondary antibodies were coupled to Alexa 568, 647 (Life Technologies), and IHC staining was visualized by confocal microscopy (ZEISS) or fluorescence microscopy. Hoechst 33342 (Thermo Scientific, 62249, 1 μg/ml final concentration) was used for nuclear staining.
Clusters at indicated stages were dissociated with TrypLE (GIBCO) with 20 ug/ml DNase for 12 minutes at 37° C. and then were fixed with 4% PFA for 10 minutes at room temperature. Clusters were then permeabilized with 0.2% Triton X for 10 min, blocking with 10% goat serum for 30 min and stained for various intracellular markers with antibodies, c-peptide, (1/100, abcam, ab30477), PDX-1 (1/100, BD, 562161), NKX6-1 (1/100, BD, 563338), Chromogranin A (1/100, BD, 564583), MAFA (1/100, abcam, ab264583), MAFB (1/100, abcam, ab66506), Glucagon (1/100, abcam, ab82270), Somatostatin (1/100, abcam, 108456) for analysis on a BD Biosciences LSRII instrument. Data were analysed by FlowJo software. Secondary antibodies for c-peptide, Glucagon and Somatostatin were coupled to Alexa 647 (Life Technologies).

B1: WNT4: recombinant human Wnt4 protein (R&D Systems), non-canonical WNT maturation factor (protein, UniProt P56705 23-351, looked up)
Protein Wnt-4: SNWLYLAKLSSVGSISEEETCEKLKGLIQRQVQMCKRNLEVMDSVRRGAQLAIEECQYQFRNRRWNCSTLDSLPVFGKVVTQGTREAAFVYAISSAGVAFAVTRACSSGELEKCGCDRTVHGVSPQGFQWSGCSDNIAYGVAFSQSFVDVRERSKGASSSRALMNLHNNEAGRKAILTHMRVECKCHGVSGSCEVKTCWRAVPPFRQVGHALKEKFDGATEVEPRRVGSSRALVPRNAQFKPHTDEDLVYLEPSPDFCEQDMRSGVLGTRGRTCNKTSKAIDGCELLCCGRGFHTAQVELAERCSCKFHWCCFVKCRQCQRLVELHTCR
Q: What does the source list for B1?
A: genes with both increased chromatin accessibility and induced expression [1]: 123 genes; mitochondrial metabolic gene expression and GSIS in neonatal islets (postnatal mouse islets): induced the expression of mitochondrial metabolic genes and improved GSIS function; cellular composition of HILOs (wHILO cells): not altered
